Source: the domain aggregation screens of Martell et al. (2025)

assay: soluble fraction after stress (log2 fold change); higher = more stays soluble; pooled small domains, quantitative proteomics; details: stress: pH 4
In short: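 Aggregation propensity is read out as the fold change in how much of each domain remains soluble after acid stress. The custom small-domain libraries were pooled, held at pH 4 and analysed with high-throughput quantitative proteomics. On the log2 scale used, higher values mean more of the domain stayed soluble.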

Row | Sequence | soluble fraction (log2)
1 | HMDIVIPIQVKNVSSGEVLDFPSIRAAARDLKFPKTTISLGVRYAGEKAYKGFVMRYRSDDPWPIVQES | 0.103
2 | HMEDIKHVVANNIKKYRKEERLTLQQLSYLTGVSKTMLNQIETEKSSPSITILWRISSGLKIPLSKLISSP | 0.143
3 | HMDAGIVVPDTYNKPLAEAVASLEGEGFRTEKKEGYSDTVAKGNVMSQNPEAGTNAERGSTVTIVISQGPQ | 0.22
4 | HMDTIYPFNPNFIDDYKGYVLGLNTNEIDRLLKYRSKGNWINSAEDFKKVTGIDDALLNKLSKSFKFPDWL | -0.991
5 | HMANEGWDIYKLDIRNHKQPNGEYYSEKEIQSTINNTFGKGSFNVDWKKYEKDKEYREKTNYYYFQAKYFV | -0.24
6 | HMTIFGWQTDETGKWYRNADGTFFEAGWKEIDGAKYYFDENGYVKTGWLELDGKDYYFDEEGRYDSSKVR | -1.69
7 | HMVTKQKKLVLTIIERSHGHLSAEEIFFRAREEMPNIALGTVYRNLNSLTEEGIVRRITLPGTSDRFDT | -0.506
8 | HMKLNKRQYAYQVIRSRILDGTYVPGQRIIIDQIAKEVNSSHIPVREAIHQLESEQLIDYEPNIGAIVKG | 0.181
9 | HMQGVTVPDLTRVSLEEAVATISSLGLRYEISDRRSNAAFPANYVLDQAPGANTIVKPNRKVYLTVNAA | 0.381
10 | HMDGVYLKSLKQTEQHIHWSGYAQSNAWVSTLMRNLDASPWFESPLLIEIKAATINNSRSNEFDLNVRL | 0.102
11 | HMALQDKYAELLTAANTMGVTNLAVAEKDGTLHVSGTAKSTADYDSLWALYDKIDPNMASGDLMMNI | -0.0324
12 | HMLILDTDGRYVIKRGDSLSEILEKIANGSNINLNLLKRAFVTANPKAFKRANPNWMYANAR | -0.145
13 | HMITSELALVKLVVKGANRVEALRVAETFRARALDVTLSSFVFELTGKPSKLDAFIGLMRSLGDTEILKR | -1.02
14 | HMSISEADAKKIALEKVPGATDSNLRIKTDYDDGIMKYEVKIVYNEMKYEFDIDAATGTILEWESESVY | 0.277
15 | HMHPNPLTEQEIAVLKGIAQGLSNQEIADQLYLSNGTVRNYVTNILSKLDAGNRTEAANIAKESGW | -0.279
16 | HMILKNVPSNLVNQRLDKVATVLFQTYSRTQIKKWILEGRLLVNGEISNPKDLVNENDEIEINPI | 0.3
17 | HMVKNLRKLREELGLTQQRLAELTGISKSRIYSYESLDREPDIAGLITLADFFSVSIDYLVGK | -1.01
18 | HMVSTSVTVTGDLNVRADSRADSDLVGALIPGQTVTRLAVLDNGWSKIRFDDGAGTVVEGYVLSEYLQADG | 0.131
19 | HMVQDDDPNSVAKFIDQVIESNPEQVEQYRSGKEKVFNFFLGQTMRLSKGKANPDLVSELLKEKLS | -0.00692
20 | HMHLYDMYNLTEKEISIIRLIANGLNNKEISQELFLSEGTIKNNITNILAKLELRDRTQLAIFAFKNKIVI | -0.647
21 | HMSVPSVAAVREQTGLSQVKFASLLGVSVRTLQEWEQGRRAPSGAARTLLMVAAKNPQALLEV | -0.0956
22 | HMFEDEYLETMYAFYETDPQALVRTGDLASSLKVSPASATEMVQRLASKGFVDYIPYKGASLTELGLAM | -0.438
23 | HMFKINNIIVSGLSEKSNLQTSEEIKNILFENIFFIKKDVLFKILEKNNLINSFEIKKIYPDTIEVKIKKT | -0.104
24 | HMQMSWDAVKARLQDIVNNEDKTKPFNDEMLASKLKEQGIEIARRTVVKYRQQLGIPAARLRKK | -0.17
25 | HMPLTAASLQTYLRGVDYPASKQDLIAHARKSDAPEDAITVLEQYSEQTYRSAADVSAEFGS | -0.156
26 | HMKTGTTGLIGEIGVVKKALTPEGKVFVHGELWRAVSKTASPEGTLVQVIKINNLVLEVEKV | 0.0324
27 | HMSLANTSVKEMLNDLVKNEEPSKPLSDEALVKIFKEKGVKIARRTVAKYRAELNILPSHLRRT | -0.116
28 | HMEHLTATERHLVAYLEAHLGQVPSLSITKLSQEANVSTASIVRTMKKLGYDGFTAFKHAIKQQLR | 0.156

Row | Sequence | soluble fraction (log2)
29 | HMRVPQWLVDKIAAAGIDTHRSGPALKALAAKAGTPEQLDQAIARAKALRRRTGSTQSLNVGLLGSILEGT | -0.0808
30 | HMNISRESLIGQILATLNKNPEEGFNYKQIAKRLNITDSPGRQMISDLLRELSKHGSLQEISHGKYKIKV | 0.215
31 | HMKTKMTPELTTVIEAQIQKEWSPEQISGWLKKTHPVSVSHQRIYQHIQADRQQGGTLHQHLRQAK | -0.2
32 | HMKTVLDSLLRILDSKELDIVVLRHIVGLTLTEIAKEKDMKKGTVFWMYNRAVKKLRLESERMGL | -0.977
33 | HMEREQNIEHGRAIVERELKRLGLSDVYTIADIATALRHDDVDQFLAKIGFGDIQSTQIGGAIAALQQR | -0.328
34 | HMSTSRAEIIAFLKSNPSSEYKHELETKLDEMDWAEAVKGNSEESFLAYKQRQPNGTHNGEADEKLKVLLV | -0.171
35 | HMLQQNRAVEAEQLARKGLSYAQSNIQQAALWRLVAEATEQQGKVDAALNAKNKAMQLEMAG | 0.353
36 | HMGDTHKVPGVKGVNVEQAMDMLSRLDLKAVVIDSVYVKDKKLGTVIEQNPVEGSVVKPGRPIYLVVNSRS | -0.0241
37 | HMRKPISQEIVDEVLKLAKNNPDWGYDRIAGVMKYLKYDVSATTVRHILDDNGIVPDPERRLR | -0.0119
38 | HMIAASPVGGIDRVLELLDARGQRVAWIEASGTEGGQRLRLGWIDAQGAERHGAWVPWSADDLLLYA | -0.547
39 | HMVMTTVPEVLGMDIRTAASMLTGKNLKYDYDLVESDKPKDEVIEQDQAKGTEVPEGTVVKLKVSKGPA | 0.247
40 | HMLVMTDNVIKAINDLLNYEAAAGIKKKQRYTAYQIYKELSEQGVYHGSRRRMEEVVSKLRVERNQI | -0.249
41 | HMPLITDIKIQVKNTEKVSLFVDGKYSFSLTISQLAEHKILKTNQEISAKQVAEFKKLSNLTNLYIRIVG | -0.296
42 | HMGEKPTEITLSNAISVQELAEKLYVSETDIIRTLFLDGIIVNINQVLDLETAVKVGDQLGVTITIVE | -1.8
43 | HMKLHFTINGVHYTWYKQFIRGIQIRELGNIPREDELYLDLPDGWKDDFIEDDEIVDLARPGVEHFISRAK | 0.321
44 | HMATAPQIRAIYALGSKLGINQNSREDNLHQLVYSITGKESIKGLTNYEAARVQSELANMERK | 0.396
45 | HMAFIEIMTEGDADGRGFQYPIPTYSITRDFDWSETENNKLLFEMTAKYGTPYFSNYINSDMEPSDV | -0.913
46 | HMNVYAGTMINVVGLQVEDAASRLRGLFYSVKIVEEESQEPDGKVLRQNIAEGTKDLEAWTLVELTVSKYV | -0.448
47 | HMVDFVNVVVPVKANYGGEAVVEFLDERLSEFGTEGIYRIELQGETMENPSPDYSQLKAKYHISEIVDRT | -0.375
48 | HMISTVFYVDVKGEVHHPGVYQMKAENRVKDLIEAAGGFTPLADDQKLNLAQLLEDQMVIVVPKKGEEV | -0.221
49 | HMTKIAFPQMLNKYRLQKNLTMEQLAEEVGKTKSTISKWEAGTRSPKIYEIEEIAKYFGVEPQTMMF | -0.548
50 | HMQNAETPDVAAEFRTWTSADGQFQVIAKLVKLDGESVHLERQDDGRQIAVPLGKLSSEDRLFLRGVRP | -0.0636
51 | HMSRGAIVTGTVIEKNQSGIYVDLGYKSDGIVPIEEFDGEESKYNVGDQIRVYVKKVDDGHGQLML | -0.135
52 | HMYHADLIGLEARSTAGDKLGEVNAVYNFGAGDLIEIKMTDGNLEMLPFTRQYVPTVSIKDGFIIVQM | -1.08
53 | HMPVASNRDVNLDIGERVFVQEWAPNRTARVQYRGSPWEARLAPGAPAAAGEHRVSAVEGNWLVLEPA | -0.19
54 | HMKAQTVPQFVGMTMTEAEEKASELGITLIEGAVVDSVEPKDTILTQDVDEGTEITGKMEIMVTISS | -0.352
55 | HMKVTQDIIFKRNGEEIKSKVLEITPDLIIYIDYSRADNIAREINISEVNMIIYKNGTSEIFSRPEE | -1.15
